The assay has as its target human CD105 (human) (UniProt P17813). The experiment in a line: FACS titration of FITC-labeled SN6 on HUVEC cells.

These results are taken from patent publication US20100196398A1.

Sequence of human CD105 (human) (P17813 26-658): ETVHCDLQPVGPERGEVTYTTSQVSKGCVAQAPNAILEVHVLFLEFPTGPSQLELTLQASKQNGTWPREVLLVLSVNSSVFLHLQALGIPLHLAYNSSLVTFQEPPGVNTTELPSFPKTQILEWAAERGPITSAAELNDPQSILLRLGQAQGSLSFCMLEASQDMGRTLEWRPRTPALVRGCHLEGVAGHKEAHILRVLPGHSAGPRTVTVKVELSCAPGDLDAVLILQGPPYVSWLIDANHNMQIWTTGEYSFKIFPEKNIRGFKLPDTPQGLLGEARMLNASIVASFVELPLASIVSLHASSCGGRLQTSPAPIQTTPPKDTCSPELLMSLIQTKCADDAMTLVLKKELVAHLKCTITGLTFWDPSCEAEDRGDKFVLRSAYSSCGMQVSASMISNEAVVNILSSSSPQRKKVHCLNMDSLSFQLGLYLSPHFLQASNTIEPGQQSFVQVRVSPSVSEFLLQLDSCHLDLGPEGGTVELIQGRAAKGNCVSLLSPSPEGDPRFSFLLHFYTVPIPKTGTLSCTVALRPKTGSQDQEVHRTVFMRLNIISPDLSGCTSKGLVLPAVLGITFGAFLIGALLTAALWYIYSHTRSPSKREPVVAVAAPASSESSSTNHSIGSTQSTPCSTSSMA

The substance SN6 antibody (Abcam) came in with an EC50 of 2 µg/mL.
